These results are taken from publication PMC8326762, “A Small Molecule Inhibitor of Pex3–Pex19 Interaction Disrupts Glycosome Biogenesis and Causes Lethality in Trypanosoma brucei” (Frontiers in Cell and Developmental Biology, 2021).

pKd: −log10 of the molar value.

What is called pKd is the negative decadic logarithm of the Kd, by convention in mol/L.

For one experiment, the target named is T1, TbPex3 (Trypanosoma brucei, UniProt Q383Q3).
T1 construct: gene Tb11.01.2020; MBP fusion to TbPex3 (with 6 × His-TbPex19), recombinant from E. coli; with TbPex19
The experiment can be described thus: pull-down and MST with purified MBP-TbPex3 and NT-647-labeled His-TbPex19; inhibition of protein-protein interaction. In kind it is binding.

For experiment [1], the target named is His-TbPex19 (T. brucei). The experiment can be described thus: MST; Monolith NT.115; 100 nM each of NT-647-labeled His-Pex19 and MBP-Pex3 with DMNQ titrated from 3 nM to 100 μM; apparent.
The target in experiment [2] is His-TbPex19 (T. brucei). The experiment can be described thus: MST; Monolith NT.115; MBP-Pex3 (0–2.5 μM) titrated into 100 nM NT-647-labeled His-Pex19; 50 mM Tris–HCl, pH 7.4, 150 mM NaCl, 10 mM MgCl2, 0.05% Tween-20.
Experiment [3] addresses His-HsPex19 (human) (UniProt P40855). In words: MST; Monolith NT.115; 100 nM each of NT-647-labeled His-Pex19 and MBP-Pex3 with DMNQ titrated from 3 nM to 100 μM; apparent.
The target is the same in experiment [4]. In words: MST; Monolith NT.115; MBP-Pex3 (0–2.5 μM) titrated into 100 nM NT-647-labeled His-Pex19; 50 mM Tris–HCl, pH 7.4, 150 mM NaCl, 10 mM MgCl2, 0.05% Tween-20.

His-HsPex19 (human), sequence (P40855 whole entry): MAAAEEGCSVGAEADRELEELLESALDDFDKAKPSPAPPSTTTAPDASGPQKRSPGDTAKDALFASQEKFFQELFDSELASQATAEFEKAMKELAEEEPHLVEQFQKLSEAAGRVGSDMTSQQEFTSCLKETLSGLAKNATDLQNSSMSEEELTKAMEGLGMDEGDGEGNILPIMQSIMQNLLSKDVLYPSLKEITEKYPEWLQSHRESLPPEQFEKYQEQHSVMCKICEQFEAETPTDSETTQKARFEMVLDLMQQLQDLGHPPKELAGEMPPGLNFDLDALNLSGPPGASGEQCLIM

For the compound `COC1=C(OC)C(=O)c2ccccc2C1=O` [2,3-dimethoxy-1,4-naphthoquinone], the “pull-down and MST with purified MBP-TbPex3 and NT-647-labeled His-TbPex19; inhib” value on TbPex3 turned out to be 39.6 ± 0.86 µM.

Turning to MBP-TbPex3 (natural protein), the apparent KD with DMNQ titrated in in the experiment with His-TbPex19 (T. brucei) [1] is 39600 nM. This compound also had a pKd in the experiment with His-TbPex19 (T. brucei) [2] of 8.42.

In the case of “MBP-HsPex3 (from UniProt P56589 1-373) (natural protein)”, the KD with DMNQ titrated in with His-HsPex19 (human) [3] was found to be 14.5 nM. In the experiment with His-HsPex19 (human) [4], the negative-log Kd (pKd) is 8.36.
